T1: lane 3: murine DI-human DII/DIII uPAR chimera (His-tagged)
T1 construct: The sheet prints only the lane number; also called Murine D1/Human D2D3; murine D1/humanD2D3
T1 uPAR ECD chimera: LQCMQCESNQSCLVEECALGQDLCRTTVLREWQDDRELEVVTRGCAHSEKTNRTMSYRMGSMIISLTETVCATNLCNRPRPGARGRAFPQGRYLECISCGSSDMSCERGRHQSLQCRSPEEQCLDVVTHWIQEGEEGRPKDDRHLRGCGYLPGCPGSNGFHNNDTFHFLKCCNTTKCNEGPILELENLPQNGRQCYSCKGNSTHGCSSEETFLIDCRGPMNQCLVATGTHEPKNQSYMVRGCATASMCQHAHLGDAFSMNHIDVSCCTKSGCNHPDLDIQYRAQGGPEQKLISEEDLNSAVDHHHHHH

T2: mouse uPAR on the surface of NCTC L929 cells (mouse, UniProt P35456 24-298)
T2 construct: whole, on cells; also called cell surface mouse uPAR
T2 sequence (looked up): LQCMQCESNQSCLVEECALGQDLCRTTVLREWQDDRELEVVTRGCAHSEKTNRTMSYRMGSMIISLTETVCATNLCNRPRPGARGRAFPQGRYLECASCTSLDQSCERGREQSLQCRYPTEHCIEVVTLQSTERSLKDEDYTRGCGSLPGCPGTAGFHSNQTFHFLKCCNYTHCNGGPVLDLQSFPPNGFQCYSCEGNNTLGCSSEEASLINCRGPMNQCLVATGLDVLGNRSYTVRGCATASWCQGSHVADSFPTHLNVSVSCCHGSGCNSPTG

T3: murine uPAR (form not stated) (mouse, UniProt P35456 24-297, limits assumed)
T3 construct: also called mouse uPAR
T3 sequence (looked up): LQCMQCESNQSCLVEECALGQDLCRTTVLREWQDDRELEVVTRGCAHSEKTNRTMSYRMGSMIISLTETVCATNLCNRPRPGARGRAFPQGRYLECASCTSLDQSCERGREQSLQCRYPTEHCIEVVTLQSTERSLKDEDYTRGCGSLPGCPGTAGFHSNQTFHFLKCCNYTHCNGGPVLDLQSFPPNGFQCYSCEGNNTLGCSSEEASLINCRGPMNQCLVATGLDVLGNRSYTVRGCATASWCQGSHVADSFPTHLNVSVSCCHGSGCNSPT

T4: human Ly6e with a myc tag, expressed in HEK293T cells (human, UniProt Q16553 21-101)
T4 construct: whole, on cells; not shown: myc tag fused on the molecule
T4 sequence (looked up): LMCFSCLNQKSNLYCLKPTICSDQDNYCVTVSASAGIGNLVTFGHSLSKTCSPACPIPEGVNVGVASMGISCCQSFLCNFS


What was measured:
[1] = target: T5, soluble recombinant human uPAR/His6 (R&D Systems, Cat. # 807-UK-100) (human, UniProt Q03405 23-303); experiment: high resolution Biacore, mAb amine coupled, uPAR injected
T5 construct: range 1-303; Bought protein; also called soluble uPAR; hu-uPAR
Method: (§1) All mAbs were diluted into 10 mM sodium acetate, pH 4.0 for immobilization. […] All experiments were run at 23° C. with a flow rate of 100 μL/min. Serially diluted (2-fold) uPAR samples were randomly injected in triplicate for 90 seconds with several buffer injections interspersed for double referencing. A Biacore™ 2000 biosensor instrument was used for all high resolution experiments. Data were fit globally to a 1:1 interaction model with a term for mass transport included.

[2] = target: T1, lane 3: murine DI-human DII/DIII uPAR …; experiment: Western blot of HEK293T culture supernatants with His-tagged uPAR proteins, probed with the antibody
From the text: Human-murine uPAR chimeras (His-tagged) were expressed in BEK293T cells and uPAR expression was detected using the anti-human uPAR mAbs as indicated.
Chimeric human-murine uPAR comprising murine D1/humanD2D3; murine D1/human D2/MuD3; and human D1D2/murineD3uPAR each with a C-terminal His tag were expressed as secreted proteins in HEK293T cells.

[3] = target: T2, mouse uPAR on the surface of NCTC L929 …; experiment: FACS, NCTC L929 mouse cells
Method: (§2) To make the mouse cross-reactivity results conclusive, direct binding of the mAbs to cell-bound mouse uPAR was measured using FACS analysis. The mouse cell line derived from the connective tissue, NCTC L929, was employed for FACS analysis. The harvested cells were resuspended at 50,000 cells/well using FACS buffer into a V-bottom plate which was put on ice. […] After washing, Cy5-labeled goat anti-human IgG Fc at 5 μg/ml and 7AAD at 5 μg/ml was added. The mixtures were incubated for 15 min on ice, washed and resuspended in cold FACS buffer for FACS analysis.

[4] = target: T5, soluble recombinant human uPAR/His6 …; experiment: high resolution Biacore
Method: as §1

[5] = target: T5, soluble recombinant human uPAR/His6 …; experiment: limited antigen ELISA, uPAR coat 20 ng/mL, sample 1:25
Target sequence in this assay (Q03405 other isoform, or with tags, fused parts or gaps limits assumed, form in doubt): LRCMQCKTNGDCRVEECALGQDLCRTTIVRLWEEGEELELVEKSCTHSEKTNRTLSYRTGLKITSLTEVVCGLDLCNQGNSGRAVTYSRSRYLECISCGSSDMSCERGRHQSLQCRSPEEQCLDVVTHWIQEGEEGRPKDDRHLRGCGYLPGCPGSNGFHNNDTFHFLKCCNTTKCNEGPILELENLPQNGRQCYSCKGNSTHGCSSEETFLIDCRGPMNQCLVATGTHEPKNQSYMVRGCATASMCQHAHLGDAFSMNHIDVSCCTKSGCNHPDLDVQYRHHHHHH
Method: (§3) ELISA plates were coated with a lower amount ofuPAR in comparison with the High Antigen Quantitation assay described below (320, 160, 80, 40 and 20 ng/mL). Samples containing one concentration of antibody (Ab) (1:25 dilution) were incubated overnight to allow Ab binding to approach equilibrium.

[6] = target: T6, human urokinase-type plasminogen activator receptor (uPAR, CD87), cell-bound (human, UniProt Q03405 23-305); experiment: FACS, U937 cells, mAb 5 µg/ml on ice, alexa647 goat anti-human F(ab), not stripped
T6 construct: whole, on cells; On B300.19 or L929 transfectants (full length cDNA), or native on U937 and PC-3 cells
Method: A cell suspension containing 100,000 cells was pipetted into each well of a V-bottom plates in duplicate. Two V-bottom plates were prepared, one to be kept at 37° C. during internalization with antibody complex, and the other to be incubated at 4° C. Each of the eight uPAR mAbs was incubated with U937 cells at 5 μg/ml on ice for 15 min. Incubation on ice was necessary to prevent internalization of the primary mAbs. The cells were then washed with cold FACS buffer. Cells were subsequently incubated on ice in 100 μl of 5 μg/ml alexa647-labelled goat anti-humanF(ab) (Invitrogen catalogue number A21249) in cold FACS buffer for 15 min. This allowed the goat FAB bind to the bound uPAR mAbs without permitting any internalization. After a 15 minute incubation on ice, one plate was kept on ice, while the other plate was incubated at 37° C. for 1 hour.
Following the 1 hr incubation with the mAb-FAB complex, the cells were washed twice with cold 5% FACS buffer, and 200 μl of Tris(2-carboxyethyl)phosphine HCl (TCEP) was added to each well as a stripping agent. The plates were both incubated with TCEP on ice for 1 hour, followed by washing and resuspending with FACS buffer. 4 μl of 7-Amino-Actinomycin D (7AAD) was added to each well, followed by 10 min incubation on ice before FACS analysis was conducted.

[7] = target: T5, soluble recombinant human uPAR/His6 …; experiment: low resolution Biacore
Method: A high-density goat anti-human antibody surface over a CM5 Biacore™ chip was prepared using routine amine coupling. […] Each mAb was captured on a separate flow cell using a 30-second contact time at 10 μL/min followed by a 5-minute wash at a 100 μL/min flow rate for stabilization of the mAb baseline. […] All antigen samples were prepared in the running buffer.

[8] = target: T5, soluble recombinant human uPAR/His6 …; experiment: limited antigen ELISA, uPAR coat 80 ng/mL, sample 1:25
Target sequence in this assay (Q03405 other isoform, or with tags, fused parts or gaps limits assumed, form in doubt): as above
Method: as §3

[9] = target: T6, human urokinase-type plasminogen …; experiment: FACS competition with FITC-tc-uPA, line material
Target sequence in this assay (Q03405 23-305): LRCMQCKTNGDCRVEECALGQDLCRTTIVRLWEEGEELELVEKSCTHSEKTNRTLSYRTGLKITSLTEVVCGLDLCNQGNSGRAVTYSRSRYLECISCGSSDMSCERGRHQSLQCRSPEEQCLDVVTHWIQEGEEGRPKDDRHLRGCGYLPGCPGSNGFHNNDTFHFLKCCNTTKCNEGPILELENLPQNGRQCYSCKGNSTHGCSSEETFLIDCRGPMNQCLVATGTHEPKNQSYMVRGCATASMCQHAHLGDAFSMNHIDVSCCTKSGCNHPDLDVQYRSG
From the text: (§4) Briefly, murine fibroblast L929 cells (ATCC) were transfected to express human uPAR.

[10] = target: T6, human urokinase-type plasminogen …; experiment: cell-based or functional assay
[11] = target: T6, human urokinase-type plasminogen …; experiment: FACS competition, FITC-tc-uPA on L929 cells expressing human uPAR, supernatant 1:2
Target sequence in this assay (Q03405 23-305): as above
From the text: as §4

[12] = target: T6, human urokinase-type plasminogen …; experiment: cell-based or functional assay; remark: listed apart in the source
[13] = target: T2, mouse uPAR on the surface of NCTC L929 …; experiment: FACS, NCTC L929 mouse cells, mAb 6.25 µg/ml
Method: as §2

[14] = target: T3, murine uPAR (form not stated); experiment: summary column Murine X-reactivity
[15] = target: T4, human Ly6e with a myc tag, expressed in …; experiment: FACS, HEK293T cells expressing Ly6e, supernatant 1:2
Method: The reactivity of the antibodies to the HEK293T transfected to express Ly6e was determined by FACS analysis, using 1:2 hybridoma supernatants, and probed with goat anti-human γ chain conjugated with Cy5 (2.5 mg/ml, Jackson Immune Research). Binding of an anti-myc antibody (10 μg/ml, Invitrogen) to the transfectants served as a positive control, and binding of this antibody to the (Ly6e negative) parental cells served as the negative control.

[16] = target: T6, human urokinase-type plasminogen …; experiment: FACS, B300.19 cells expressing human uPAR, anti-human gamma Cy5
Target sequence in this assay (Q03405 23-305): as above

Kd [1] [nM] | binding result [2] | binding result [3] | Kd [4] [nM] | LA at 20 ng/ml [5] | geo mean cold - TCEP [6] | Kd [7] [nM] | LA at 80 ng/ml [8] | Human uPAR/uPA binding inhibition (%, line material) [9] [%] | inhibition of adhesion of U937 cells to vitronectin at 2 µg/ml [10] [%] | inhibition of plasminogen activation on U937 cells [10] [%] | uPA/uPAR binding Inhibition % [11] [%] | Plasminogen activation inhibition (IC50, ug/ml) [12] [µg/mL] | X Geo Mean [13] | binding result [14] | binding result [15] | gCy5 Geo Mean Pos Cells [16] | Binder
0.249 | binds | no binding (tested: 6.25 µg/ml) | 0.249 | 0.63 | 44.3 | 0.57 | 3.58 | 80 | 90 | > 90 | 80 | 0.073 | 12.9 | no binding | no binding (tested: GeoMean ratio 1.95) | 455 | fully human monoclonal antibody 2.6.1 (ATCC Accession Number PTA-7475) (antibody, V domains shown, also called mAb 2.6.1) VH: EVQLVESGGGLIQPGGSLRLSCAASGFTVITNYMNWVRQAPGKGLEWVSIIYTGGSTSYADSVKGRFTVSRDNSKNTLYLHMNSLRVEDTAVYYCAREIAVAGYYGMDVWGQGTTVTVS VL: DIQMTQSPSSLSASVGDRVTITCRASQGIRNDLGWYQQKPGKAPKRLIYAASSLQSGVPSRFSGSGSGTEFTLTISSLQPEDFATYYCLQHNSYPLTFGGGTRVEIK
0.175 | no binding | no binding (tested: 6.25 µg/ml) | 0.175 | 0.65 | 42.7 | 0.31 | 2.65 | 85 | 90 | > 90 | 85 | 0.053 | 9.55 | no binding | no binding (tested: GeoMean ratio 1.95) | 445 | fully human monoclonal antibody 2.19.2 (ATCC Accession Number PTA-7474) (antibody, V domains shown) VH: QVQLVESGGGVVQPGRSLRLSCAASGFTFSSYGMHWVRQAPGKGLEWVAVIWYDGSNKYYADSVKGRFTISRDNSKNTLYLQMNSLRAEDTAVYYCARDQHIVVVTAILDYWGQGTLVTVSS VL: not shown
0.446 | binds | no binding (tested: 6.25 µg/ml) | 0.446 | 0.27 | 41.2 | 1.5 | 2.06 | 75 | ~90 | > 90 | 75 | 0.067 | 8.18 | no binding | no binding (tested: GeoMean ratio 1.95) | 251 | fully human monoclonal antibody 4.18.1 (ATCC Accession Number PTA-7476) (antibody, V domains shown) VH: EVQLVESGGGLIQPGGSLRLSCAASGFTVRNNYMNWVRQAPGKGLEWVSVIYTGGSTYYADSVKGRFTISRDNSRNTLYLQMNSLRAEDTAVYYCAREGAVAGFDYWGQGTLVTVSL VL: EIVMTQFPATLSMSPGERATLSCRASQSVSSSLAWYQQTPGQAPRLLIYGASTRSTGFPARFSGIGSGTEFTLTISSLQSEDFAVYYCQQYGNWPLTFGQGTRLEIK
